Laboratory results as given in patent US20110135634A1, “METHODS OF INHIBITING INFECTION BY DIVERSE SUBTYPES OF DRUG-RESISTANT HIV-1” (priority 2007, published 2011).
Read-outs that look alike come from different tables or passages of the source.

Columns and labels:
CCR5 = CCR5 (Homo sapiens, UniProt P51681); conditions: cited from earlier work
[1] = test system: reporter viruses pseudotyped with HIV-1JR-FL envelope (U87-CD4-CCR5 cells); experiment: microbe, parasite or virus in culture; assay type: cell-based
[2] = Phase 1b clinical trial: safety, PK, immunogenicity, tropism, susceptibility; assay type: in vivo, human; conditions: HIV-infected subjects
Description: All patients were screened prior to the study for the presence of virus that utilizes only CCR5 as the entry coreceptor, i.e., CCR5-tropic virus.

[3] = test system: primary R5 HIV-1 isolates; experiment: Whole virus replication (neutralization) assay; assay type: cell-based; conditions: a variety of primary R5 strains (FIG. 1)
Method: Humanized PRO140 is potently antiviral. […] The data reflect the median values from 8 or more independent assays. The genetic subtypes of the viruses are indicated in parentheses.
Stimulated PBMCs are seeded into wells of 96-well flat bottom plates at a density of 1.4×10^5 cells/well. Virus is diluted to 2,000 TCID50/ml and mixed with serial 0.5 log10 dilutions of compound for 1 h at 37° C. prior to addition to the cell plates. The final amount of virus added per well is 100 TCID50. The final DMSO concentration in the assay is always 0.5% whenever small molecule inhibitors are being tested. Plates are incubated at 37° C. for 5 days, at which time an aliquot of supernatant is removed for p24 antigen ELISA.
The percent inhibition is derived as follows [1−(p24 levels in the presence of drug/p24 levels in the absence of drug)]×100.

HIV-1JR-CSF = experiment: hu-PBL-SCID mouse model of HIV-1 infection (FIG. 5); assay type: in vivo, SCID mice; conditions: multiple doses after steady state viral levels
Method: SCID mice were reconstituted with normal human peripheral blood mononuclear cells and infected 2 weeks later with HIV-1JR-CSF. Multiple doses of PRO 140 were administered following attainment of steady state viral levels. Plasma viral loads pre- and post-injection are indicated.

[4] = human, in vivo
Method: (§1) Individuals were treated in sequential, dose-rising cohorts of 5 subjects (4 active and 1 placebo) each and evaluated for up to 120 days post-treatment. […] Safety assessments consisted of monitoring the following: vital signs (blood pressure, pulse, temperature, etc; hematology (hemoglobin, hematocrit, leukocytes, platelets, etc.); serum chemistries (AST/ALT, alkaline phosphatase, BUN, creatinine, etc.); urinalysis (pH, specific gravity, protein, glucose, leukocytes, etc.); and ECGs (12-lead).
Sera were diluted as appropriate and combined with L1.2-CCR5 cells, which are mouse pre-B lymphoma cells engineered to stably express human CCR5. […] Following incubation with test samples, cells were washed and combined with a FITC-labeled sheep antibody against human IgG4 (The Binding Site Limited, Cat. #AF009). Cells were washed again and analyzed by flow cytometry.
Serum was collected post-treatment, cryopreserved, and analyzed for PRO 140 levels. Peak serum concentrations ranged to […] at 0.1 mg/kg and […] at 0.5 mg/kg.

HIV-1 = conditions: Olson et al., 1999; Trkola et al., 2001; cited from earlier work
[5] = test system: reporter viruses pseudotyped with HIV-1SF162 envelope (U87-CD4-CCR5 cells); experiment: HIV-1 pseudovirus assay, SF162 envelope; assay type: cell-based
Description: A self-inactivating (SIN) vector was derived from the pNL4-3ΔEnv-luciferase vector (Dragic et al. 1996) by deleting 507 basepairs in the U3 region of the 3′ long terminal repeat (LTR) so as to remove the TATA box and transcription factor binding sites. The human cytomegalovirus promoter was inserted upstream of the luciferase (luc) gene to enable expression of luciferase following integration.
Reporter viruses pseudotyped with HIV-1JR-FL or HIV-1SF162 envelopes were generated by cotransfection of 293T cells with the SIN vector and the appropriate pcDNA env-expressing vector as previously described (Dragic et al. 1996). […] Cultures were incubated for 72 h at 37° C. in DMEM containing 10% fetal bovine serum, […] puromycin, 0.3 mg/mL geneticin, antibiotics, and 0.5% DMSO. Luciferase activity (relative light units or RLU) was measured using. BrightGlo reagent (Promega, Madison, Wis.) according to the manufacturer's instructions.
Experimental design and data analysis were based on the combination index (CI) method (Chou et al. 1991; Chou et al. 1984). […] The mutually exclusive CI formula was used for combinations of CCR5 inhibitors, while the mutually non-exclusive formula was utilized for combinations of inhibitors to distinct targets (Chou et al. 1991). Each test was conducted 4-12 times. Synergy, additivity and antagonism are indicated by CI<1, CI=1 and CI>1, respectively.

[6] = target: T1, CCR5 on CEM.NKR-CCR5 cells (Homo sapiens, UniProt P51681); experiment: Competition binding: inhibition of 3H-UK-427,857 binding; conditions: read-out: EC50, inhibition of 3H-UK-427,857 binding; 2 nM 3H-UK-427,857, CEM.NKR-CCR5 cells
T1 construct: host or cells: CEM.NKR-CCR5 (transduced human T cell leukemia line)
T1 sequence (P51681 whole entry): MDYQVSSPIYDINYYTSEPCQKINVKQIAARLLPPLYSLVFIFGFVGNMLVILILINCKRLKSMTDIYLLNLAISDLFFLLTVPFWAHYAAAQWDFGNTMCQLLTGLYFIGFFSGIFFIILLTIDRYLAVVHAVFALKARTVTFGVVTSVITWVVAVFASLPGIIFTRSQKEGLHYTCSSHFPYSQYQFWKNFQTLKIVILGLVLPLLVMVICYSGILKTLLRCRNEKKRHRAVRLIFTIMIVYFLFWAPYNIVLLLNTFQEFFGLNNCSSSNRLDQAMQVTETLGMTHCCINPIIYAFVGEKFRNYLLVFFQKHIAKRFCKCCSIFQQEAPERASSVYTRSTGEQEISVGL
Description: The cells were washed in PBSA and lysed with 0.5N HCl prior to scintillation counting using a Wallac 1410 instrument.

[7] = test system: CCR5 chemokine signaling (L1.2-CCR5 cells); experiment: RANTES-induced calcium mobilization in L1.2-CCR5 cells versus HIV-1JR-FL replication in PBMC (FIG. 4); assay type: cell-based, human; conditions: PBMC cultures, similar results for MIP-1α and MIP-1β
Description: Similar results were obtained for MIP-1α and MIP-1β.

[8] = human, in vivo; remark: listed apart in the source
Method: as §1

[9] = JRFL, labelled 1st inhibitor with 2nd inhibitor PRO 140 (equimolar; 1:10 PRO 140 to nevirapine or zidovudine)
[10] = SF162, labelled 1st inhibitor with 2nd inhibitor PRO 140 (equimolar; 1:10 PRO 140 to nevirapine or zidovudine)

Chain of CCR5 (P51681 whole entry): as above

B1: PRO 140: humanized IgG4,κ anti-CCR5 mAb being developed for HIV-1 therapy (antibody, chains of the INN, looked up, V domains shown)
VH: EVQLVESGGGLVKPGGSLRLSCAASGYTFSNYWIGWVRQAPGKGLEWIGDIYPGGNYIRNNEKFKDKTTLSADTSKNTAYLQMNSLKTEDTAVYYCGSSFGSNYVFAWFTYWGQGTLVTVSS
VL: DIVMTQSPLSLPVTPGEPASISCRSSQRLLSSYGHTYLHWYLQKPGQSPQLLIYEVSNRFSGVPDRFSGSGSGTDFTLKISRVEAEDVGVYYCSQSTHVPLTFGQGTKVEIK
- Block Natural Activity of CCR5 (CCR5; Table 2 summary): No
- Development of Resistance In Vitro (CCR5; Table 2 summary): None at 40 weeks
- Viral Cross-Resistance (CCR5; Table 2 summary): Limited
- tolerability (CCR5): No Toxicity
- IC50 ([1]; HIV-1 envelope JRFL, 1st inhibitor alone, read-out: IC50): 2.2 nM
- IC90 ([1]; HIV-1 envelope JRFL, 1st inhibitor alone, read-out: IC90): 28 nM
- CI50 [1, 9]: 1.2 ± 0.32
- CI90 [1, 9]: 0.90 ± 0.15
- change in plasma RANTES (CCL5) chemokine levels [2]: No change
- dose-limiting toxicity ([2]; 0.5-5.0 mg/kg): No dose-limiting toxicity
- treatment related SAEs ([2]; 0.5-5.0 mg/kg): No treatment related SAEs
- tolerability ([2]; all study groups): well-tolerated
- IC90 [3]: 3 to 4 µg/mL
- control of viral replication (plasma viral loads) (HIV-1JR-CSF): prolonged control of viral replication
- terminal serum half-life [4]: 240 to 288 h
- IC90 (HIV-1): about 4 μg/ml
- IC50 ([5]; HIV-1 envelope SF162, 1st inhibitor alone, read-out: IC50): 1.3 nM
- IC90 ([5]; HIV-1 envelope SF162, 1st inhibitor alone, read-out: IC90): 20 nM
- CI50 [5, 10]: 1.0 ± 0.27
- CI90 [5, 10]: 0.86 ± 0.33
- EC50 [6]: 14 nM
- effect on RANTES-induced calcium mobilization and on HIV-1JR-FL replication [7]: blocks HIV-1 but not chemokine signaling
- dose-limiting toxicity [8]: no dose-limiting toxicity
